# Laboratory results: article PMC3781043, “A Transcript Profiling Approach Reveals an Abscisic Acid-Specific Glycosyltransferase (UGT73C14) Induced in Developing Fiber of Ligon lintless-2 Mutant of Cotton (Gossypium hirsutum L.)” (PLoS ONE, 2013)
# B1: UGT73C14 (Gossypium hirsutum) (protein)
# chain: AQGHFVLIPFMAQGHLIPMVDIGRLLAQRGVTVTIVTTPYNAGRVQKSVARAIESGLPIRLLQLQFPGKEVGLIDGVENIDMLHSMEDLIKFVSAANKMEEAMLKLFEKLTPRPNCIISDINLFYTRKIASKFQVPKISFHGFCCFCLLCLRNIQSSKINETVTSDSEYFTVPGLTDKVEFTRVQLPLDNDGSWKEIFEPMWEADRASYGVVINTFEELESAYVKEYRKEKKAWCIGPVSLSHKDELDMAERGNKTSIDGQKCLKWLDSQQPGSVIYACLGSIGTIKCPELIELGLGLEASNKPFIWVLRGNNPTASEVYKWIRRNEFEERTKGRGLVVVGWAPQVLILSHPAIGGFLTHCGWNSIIEGISAGVPLITFPFMGDQFCNEKLAVQILKIGVNLGANKPTMLGDEKSGFILNTEHVKNAIDKLMEQGNEGKEMRKRAKELGDEANKAVEVGGSSYMNITLLIQDILQQSQEMR
# notes: about 99 kDa
# How the values were obtained:
# [1] = substrate: CC1=CC(=O)CC(C)(C)[C@@]1(O)/C=C/C(C)=C\C(=O)O; assay: HPLC-MS of ABA glucoside formed, hyperbolic regression; type: biochemical, Gossypium hirsutum; conditions: 2.5 mM UDP-glucose as sugar donor, 50 mM MgCl2, 500 µM ATP, 50 mM Tris-HCl pH 8.0, 30°C
# From the text: (§1) HPLC-MS of ABA glucoside formed, hyperbolic regression on UGT73C14
# [2] = substrate: CC1=CC(=O)CC(C)(C)[C@@]1(O)/C=C/C(C)=C/C(=O)O; assay: as above; type: biochemical, Gossypium hirsutum; conditions: 2.5 mM UDP-glucose as sugar donor, 50 mM MgCl2, 500 µM ATP, 50 mM Tris-HCl pH 8.0, 30°C
# From the text: as §1
protein,measurement,setting,value
B1,Km,[1],61.7 µM
same,Vmax,[1],221 µmol/min
same,kcat,[1],7.2 s⁻¹
same,kcat/Km,[1],115000 M⁻¹ s⁻¹
same,Km,[2],98.1 µM
same,Vmax,[2],82.9 µmol/min
same,kcat,[2],2.7 s⁻¹
same,kcat/Km,[2],27100 M⁻¹ s⁻¹
